The values that follow come from article PMC9929924, “Phosphorylation of the receptor protein Pex5p modulates import of proteins into peroxisomes” (Biological Chemistry, 2022).

Substitutions are numbered along the chain they refer to. Names and notes keep the numbering of the source. Values joined by “and” are separate entries in the source; they are usually repeats but may differ in a detail not shown here. Equal entries are not always repeated. Ends that are not written are not given here. Peptide text beside a SMILES is read from it. * marks the point of attachment. FITC = O=C1OC2(c3ccc(O)cc3Oc3cc(O)ccc32)c2ccc(NC(=S)*)cc21

To fix the notation:
B1: Pex5p wildtype, recombinant His6-tagged (HisPex5p) (natural protein, S. cerevisiae, UniProt P35056 1-612, looked up)
chain: MDVGSCSVGNNPLAQLHKHTQQNKSLQFNQKNNGRLNESPLQGTNKPGISEAFISNVNAISQENMANMQRFINGEPLIDDKRRMEIGPSSGRLPPFSNVHSLQTSANPTQIKGVNDISHWSQEFQGSNSIQNRNADTGNSEKAWQRGSTTASSRFQYPNTMMNNYAYASMNSLSGSRLQSPAFMNQQQSGRSKEGVNEQEQQPWTDQFEKLEKEVSENLDINDEIEKEENVSEVEQNKPETVEKEEGVYGDQYQSDFQEVWDSIHKDAEEVLPSELVNDDLNLGEDYLKYLGGRVNGNIEYAFQSNNEYFNNPNAYKIGCLLMENGAKLSEAALAFEAAVKEKPDHVDAWLRLGLVQTQNEKELNGISALEECLKLDPKNLEAMKTLAISYINEGYDMSAFTMLDKWAETKYPEIWSRIKQQDDKFQKEKGFTHIDMNAHITKQFLQLANNLSTIDPEIQLCLGLLFYTKDDFDKTIDCFESALRVNPNDELMWNRLGASLANSNRSEEAIQAYHRALQLKPSFVRARYNLAVSSMNIGCFKEAAGYLLSVLSMHEVNTNNKKGDVGSLLNTYNDTVIETLKRVFIAMNRDDLLQEVKPGMDLKRFKGEFSF
notes: Pex5p, PTS1 receptor of Saccharomyces cerevisiae, UniProtKB P35056, full length; No cleavage of the His tag is described; the native MS mass of the monomer is printed as 71.459 kDa; also called Pex5p^WT; source: E. coli BL21 RIL (DE3), purified (Ni-NTA, MonoQ anion exchange, SEC)
B2: Pex5p-S507/523D, recombinant His6-tagged phospho-mimicking mutant (natural protein, S. cerevisiae, UniProt P35056 1-612, looked up)
chain: B1 chain with S507D, S523D
notes: Pex5p, PTS1 receptor of Saccharomyces cerevisiae, UniProtKB P35056, full length, with S507D and S523D; No cleavage of the His tag is described; the native MS mass of the monomer is printed as 71.515 kDa; also called Pex5p^2D; Pex5p-S507D/523D; source: E. coli BL21 RIL (DE3), purified (Ni-NTA, MonoQ anion exchange, SEC)
B3: Idp3p nonapeptide, FITC-YNEDKKGMCKL (peptide)
chain: {FITC}-YNEDKKGMCKL
B4: Pcs60p, peroxisomal oxalyl-CoA synthetase, recombinant (natural protein, S. cerevisiae, UniProt P38137 1-543, looked up)
chain: MTSAATVTASFNDTFSVSDNVAVIVPETDTQVTYRDLSHMVGHFQTMFTNPNSPLYGAVFRQDTVAISMRNGLEFIVAFLGATMDAKIGAPLNPNYKEKEFNFYLNDLKSKAICVPKGTTKLQSSEILKSASTFGCFIVELAFDATRFRVEYDIYSPEDNYKRVIYRSLNNAKFVNTNPVKFPGFARSSDVALILHTSGTTSTPKTVPLLHLNIVRSTLNIANTYKLTPLDRSYVVMPLFHVHGLIGVLLSTFRTQGSVVVPDGFHPKLFWDQFVKYNCNWFSCVPTISMIMLNMPKPNPFPHIRFIRSCSSALAPATFHKLEKEFNAPVLEAYAMTEASHQMTSNNLPPGKRKPGTVGQPQGVTVVILDDNDNVLPPGKVGEVSIRGENVTLGYANNPKANKENFTKRENYFRTGDQGYFDPEGFLVLTGRIKELINRGGEKISPIELDGIMLSHPKIDEAVAFGVPDDMYGQVVQAAIVLKKGEKMTYEELVNFLKKHLASFKIPTKVYFVDKLPKTATGKIQRRVIAETFAKSSRNKSKL
notes: Pcs60p, peroxisomal oxalyl-CoA synthetase of S. cerevisiae, a PTS1-protein; GST tag removed with thrombin; native MS mass of the monomer printed as 60.632 kDa; also called wildtype Pcs60p; GSTPcs60p (before cleavage); source: E. coli BL21 RIL (DE3), purified (GSTrap, thrombin cleavage, SEC); not shown: GST, N-terminal, cleaved

The target of data set [1] is T1, Pex5p^2D (Saccharomyces cerevisiae, UniProt P35056, S507D/S523D).
T1 construct: 10 μM full-length Pex5p^WT and Pex5p^2D mutant as a sample in the cell; made in house; host or cells: E. coli BL21 RIL (DE3)
T1 sequence (P35056 whole entry S507D/S523D): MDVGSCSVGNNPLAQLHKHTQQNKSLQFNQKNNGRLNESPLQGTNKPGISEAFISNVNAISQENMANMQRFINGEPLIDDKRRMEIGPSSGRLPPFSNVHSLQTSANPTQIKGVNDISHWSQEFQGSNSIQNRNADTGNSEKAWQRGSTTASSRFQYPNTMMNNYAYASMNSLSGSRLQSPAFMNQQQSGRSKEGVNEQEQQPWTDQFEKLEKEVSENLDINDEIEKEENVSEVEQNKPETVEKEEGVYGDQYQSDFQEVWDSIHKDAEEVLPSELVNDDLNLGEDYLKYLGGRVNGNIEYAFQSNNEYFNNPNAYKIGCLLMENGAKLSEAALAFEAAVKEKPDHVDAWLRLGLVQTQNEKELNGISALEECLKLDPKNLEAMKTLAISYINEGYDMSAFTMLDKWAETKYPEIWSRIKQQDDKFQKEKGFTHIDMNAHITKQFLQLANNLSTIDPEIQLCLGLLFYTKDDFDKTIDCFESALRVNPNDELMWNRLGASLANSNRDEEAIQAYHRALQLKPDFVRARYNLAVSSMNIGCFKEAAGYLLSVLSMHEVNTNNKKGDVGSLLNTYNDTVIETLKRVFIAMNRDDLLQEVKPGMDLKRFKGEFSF
Put plainly: biochemical. It counts as binding. From the text: The elution of proteins was monitored at 280 nm.

Data set [2] deals with the molecule itself. Description: native MS; single purified proteins in 200 mM ammonium acetate pH 6.8; collision energy 100 V.
For data set [3], the target named is B1. Put plainly: fluorescence polarisation; fluorescence anisotropy; 10 nM FITC-labelled Idp3p peptide, serial dilutions of Pex5p variant 160 nM to 38 µM; 50 mM HEPES pH 7.5, 150 mM NaCl; one-site binding-saturation fit. Conditions: both partners purified. (In general: Polarisation of emitted light reports the rotation of a fluorescent probe.)
The target in data set [4] is B2. Put plainly: native MS; Pex5p variant (7.5 µM) mixed with Pcs60p (5 µM), 5 min on ice; 200 mM ammonium acetate pH 6.8; collision energy 100 V. The conditions noted are these: both partners purified.
Data set [5] deals with B1. The description is as above. The conditions noted are these: both partners purified.
Data set [6] deals with B2. Description: ITC; MicroCal VP-ITC, 25 °C; 10 µM Pex5p variant in the cell, 100 µM Pcs60p as titration ligand, 30 injections of 10 µl; 50 mM HEPES pH 7.5, 150 mM NaCl. The conditions noted are these: both partners purified.
The target in data set [7] is B1. The data set is described as above. The conditions noted are these: both partners purified.
The target in data set [8] is T2, Pex5p wildtype, recombinant His6-tagged (HisPex5p) (S. cerevisiae, UniProt P35056 1-612).
T2 chain: B1 chain
Put plainly: ITC; representative single titration. On the technique in general: In ITC the heat of successive injections is recorded.

Data set [9] has as its target T3, Pex5p-S507/523D, recombinant His6-tagged phospho-mimicking mutant (S. cerevisiae, UniProt P35056 1-612, S507D | S523D).
T3 sequence: B1 chain with S507D, S523D
Description: ITC; representative single titration.

`CC(C)C[C@H](NC(=O)[C@H](CCCCN)NC(=O)[C@H](C)NC(=O)[C@H](CCCCN)NC(=O)[C@H](CCCNC(=N)N)NC(=O)[C@H](CCCCN)NC(=O)[C@H](CC(N)=O)NC(=O)[C@H](CCC(=O)O)NC(=O)[C@H](CC(N)=O)NC(=O)[C@H](Cc1ccc(O)cc1)NC(=S)Nc1ccc2c(c1)C(=O)OC21c2ccc(O)cc2Oc2cc(O)ccc21)C(=O)O` [Cat2p peptide] ({FITC}-YNENKRKAKL-OH): binding in data set [1] was put at a Kd of 897 nM.

With `CC(C)C[C@H](NC(=O)[C@H](CCCNC(=N)N)NC(=O)[C@H](CO)NC(=O)[C@H](CO)NC(=O)[C@H](CCCNC(=N)N)NC(=O)[C@H](CCCCN)NC(=O)[C@@H](NC(=O)[C@H](CCCNC(=N)N)NC(=O)[C@H](C)NC(=O)[C@H](Cc1ccc(O)cc1)NC(=S)Nc1ccc2c(c1)C(=O)OC21c2ccc(O)cc2Oc2cc(O)ccc21)C(C)C)C(=O)O` [Lys1p peptide] ({FITC}-YARVKRSSRL-OH), in data set [1], the Kd came to 3690 ± 1580 nM. On to B1, for which, in data set [2], the “stoichiometry N” value is 2. Take B2: the “stoichiometry N” value in data set [2] amounted to 2.

Turning to B3, the Kd in data set [3] came out at 5.54 µM. Take B4: the “stoichiometry N” value in data set [4] is 1 Pcs60p per Pex5p and 2 Pcs60p per Pex5p (1:2 receptor-cargo complex) and 1 Pcs60p per Pex5p (2:2 receptor-cargo complex); in [5], 1 Pcs60p per Pex5p (2:2 receptor-cargo complex) and 1 Pcs60p per Pex5p and 2 Pcs60p per Pex5p (1:2 receptor-cargo complex). Further, the Kd was 338 nM in [6], 17.4 nM in [7], 13 nM in [8] and 271 nM in [9].

A word on the Kd: it is a measure of binding affinity in units of concentration. In general, stoichiometry N refers to the number of molecules, sites or subunits per partner or assembly.
